B1: ADI-34141 (antibody, V domains shown)
VH: EVQLLESGGGLVQPGGSLRLSCAASGFTFSSYAMSWVRQAPGKGLEWVSTISGSGGSTYYADSVKGRFTISRDNSKNTLYLQMNSLRAEDTAVYYCARLGGRRGSGSSYYYYYGMDVWGQGTTVTVSS
VL: not shown
notes: anti-ID IgG
B2: ADI-34144 (antibody, V domains shown)
VH: B1 VH
VL: not shown
notes: anti-ID IgG

Columns and labels:
[1] = biological target: T1, ADI-22523 IgG; experiment: BLI; tip anti-ID IgG, solution ADI-22523 IgG
T1 construct: anti-CD3 IgG
Procedure: (§1) ForteBio affinity measurements were performed generally as previously described (Estep et al., MAbs. 2013 5(2):270-8). Briefly, ForteBio affinity measurements were performed by loading antibody IgG or Fabs on-line onto AHC sensors. Sensors were equilibrated off-line in assay buffer for 30 minutes and then monitored on-line for 60 seconds for baseline establishment. For avid binding measurement, sensors with loaded antibodies were exposed to IgG or Fab solutions for 3 minutes, afterwards they were transferred to assay buffer for 3 minutes for off-rate measurement. Kinetics data were fit using a 1:1 binding model in the data analysis software provided by ForteBio to obtain equilibrium dissociation constant (KD=koff/kₒₙ) values. In each column, tip-immobilized antibodies are listed first and solution antibodies second.

[2] = biological target: T2, ADI-26920 IgG; experiment: SPR Carterra avidity, yeast anti-ID, *koff limit
T2 construct: anti-CD3 IgG
Summary of the method: (§2)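 Anti-CD3 IgGs (100 nM) captured on goat anti-human Fc amine-coupled HC30M chip; anti-idiotype antibodies flowed as analytes, dissociation 300 s, HBSTE running buffer, 25° C. Double-referenced sensorgrams fitted to 1:1 model; glycine pH 1.7 regeneration.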

[3] = biological target: T3, ADI-26913 IgG; experiment: SPR Carterra avidity, yeast anti-ID, *koff limit
T3 construct: anti-CD3 IgG
Summary of the method: as §2

[4] = biological target: T4, ADI-26906 IgG; experiment: SPR Carterra avidity, yeast anti-ID, *koff limit
T4 construct: anti-CD3 IgG
Summary of the method: as §2

[5] = biological target: T5, ADI-26943; experiment: SPR Carterra avidity, yeast anti-ID, *koff limit
T5 construct: anti-CD3 antibody made in CHO cells, captured by anti-human Fc
Summary of the method: as §2

[6] = biological target: T6, ADI-26919; experiment: SPR Carterra avidity, yeast anti-ID, *koff limit
T6 construct: anti-CD3 antibody made in CHO cells, captured by anti-human Fc
Summary of the method: as §2

[7] = biological target: T7, ADI-26916 IgG; experiment: SPR Carterra avidity, yeast anti-ID, *koff limit
T7 construct: anti-CD3 IgG
Summary of the method: as §2

[8] = biological target: T8, ADI-26924; experiment: SPR Carterra avidity, yeast anti-ID, *koff limit
T8 construct: anti-CD3 antibody made in CHO cells, captured by anti-human Fc
Summary of the method: as §2

[9] = biological target: T9, ADI-76357; experiment: SPR Carterra avidity, yeast anti-ID, *koff limit
T9 construct: anti-CD3 antibody made in CHO cells, captured by anti-human Fc
Summary of the method: as §2

[10] = biological target: T10, ADI-74965; experiment: SPR Carterra avidity, yeast anti-ID
T10 construct: pH-dependent anti-CD3 antibody made in CHO cells
Summary of the method: as §2

[11] = biological target: T11, ADI-76360; experiment: SPR Carterra avidity, yeast anti-ID
T11 construct: anti-CD3 antibody made in CHO cells, captured by anti-human Fc
Summary of the method: as §2

[12] = biological target: T12, ADI-26909; experiment: SPR Carterra avidity, yeast anti-ID
T12 construct: anti-CD3 antibody made in CHO cells, captured by anti-human Fc
Summary of the method: as §2

[13] = biological target: T13, ADI-67450; experiment: SPR Carterra avidity, yeast anti-ID
T13 construct: anti-CD3 antibody made in CHO cells, captured by anti-human Fc
Summary of the method: as §2

[14] = biological target: T14, ADI-48587; experiment: SPR Carterra avidity, yeast anti-ID
T14 construct: pH-dependent anti-CD3 antibody made in CHO cells
Summary of the method: as §2

[15] = biological target: T15, ADI-76358; experiment: SPR Carterra avidity, yeast anti-ID
T15 construct: anti-CD3 antibody made in CHO cells, captured by anti-human Fc
Summary of the method: as §2

[16] = biological target: T16, ADI-76361; experiment: SPR Carterra avidity, yeast anti-ID
T16 construct: anti-CD3 antibody made in CHO cells, captured by anti-human Fc
Summary of the method: as §2

[17] = biological target: T17, ADI-26912; experiment: SPR Carterra avidity, yeast anti-ID
T17 construct: anti-CD3 antibody made in CHO cells, captured by anti-human Fc
Summary of the method: as §2

[18] = biological target: T18, ADI-74967; experiment: SPR Carterra avidity, yeast anti-ID
T18 construct: pH-dependent anti-CD3 antibody made in CHO cells
Summary of the method: as §2

[19] = biological target: T19, ADI-74966; experiment: SPR Carterra avidity, yeast anti-ID
T19 construct: pH-dependent anti-CD3 antibody made in CHO cells
Summary of the method: as §2

[20] = biological target: T20, ADI-70326; experiment: SPR Carterra avidity, yeast anti-ID
T20 construct: anti-CD3 antibody made in CHO cells, captured by anti-human Fc
Summary of the method: as §2

[21] = biological target: T21, ADI-48650; experiment: SPR Carterra avidity, yeast anti-ID
T21 construct: pH-dependent anti-CD3 antibody made in CHO cells
Summary of the method: as §2

[22] = biological target: T22, ADI-76359; experiment: SPR Carterra avidity, yeast anti-ID
T22 construct: anti-CD3 antibody made in CHO cells, captured by anti-human Fc
Summary of the method: as §2

[23] = biological target: T23, ADI-48576; experiment: SPR Carterra avidity, yeast anti-ID
T23 construct: pH-dependent anti-CD3 antibody made in CHO cells
Summary of the method: as §2

[24] = biological target: T24, ADI-67447; experiment: SPR Carterra avidity, yeast anti-ID
T24 construct: anti-CD3 antibody made in CHO cells, captured by anti-human Fc
Summary of the method: as §2

[25] = biological target: T25, ADI-26921 IgG; experiment: SPR Carterra avidity, yeast anti-ID
T25 construct: anti-CD3 IgG
Summary of the method: as §2

[26] = biological target: T26, ADI-76362; experiment: SPR Carterra avidity, yeast anti-ID
T26 construct: anti-CD3 antibody made in CHO cells, captured by anti-human Fc
Summary of the method: as §2

[27] = biological target: T27, ADI-74968; experiment: SPR Carterra avidity, yeast anti-ID
T27 construct: pH-dependent anti-CD3 antibody made in CHO cells
Summary of the method: as §2

[28] = biological target: T28, ADI-48592; experiment: SPR Carterra avidity, yeast anti-ID
T28 construct: pH-dependent anti-CD3 antibody made in CHO cells
Summary of the method: as §2

[29] = biological target: T29, ADI-50024; experiment: SPR Carterra avidity, yeast anti-ID
T29 construct: anti-CD3 antibody made in CHO cells, captured by anti-human Fc
Summary of the method: as §2

[30] = biological target: T30, ADI-70330; experiment: SPR Carterra, yeast anti-ID
T30 construct: anti-CD3 antibody made in CHO cells, captured by anti-human Fc
Summary of the method: as §2

[31] = biological target: T31, CTL-62223; experiment: SPR Carterra, yeast anti-ID
T31 construct: also called mosunetuzumab
Summary of the method: as §2

[32] = biological target: T32, ADI-70327; experiment: SPR Carterra, yeast anti-ID
T32 construct: anti-CD3 antibody made in CHO cells, captured by anti-human Fc
Summary of the method: as §2

[33] = biological target: T33, CTL-62240; experiment: SPR Carterra, yeast anti-ID
T33 construct: also called ONO-4685
Summary of the method: as §2

[34] = biological target: T34, CTL-62228; experiment: SPR Carterra, yeast anti-ID
T34 construct: also called glofitamab
Summary of the method: as §2

[35] = biological target: T35, ADI-67445; experiment: SPR Carterra, yeast anti-ID
T35 construct: anti-CD3 antibody made in CHO cells, captured by anti-human Fc
Summary of the method: as §2

[36] = biological target: T36, ADI-26915; experiment: SPR Carterra, yeast anti-ID
T36 construct: anti-CD3 antibody made in CHO cells, captured by anti-human Fc
Summary of the method: as §2

[37] = biological target: T37, CTL-62227; experiment: SPR Carterra, yeast anti-ID
T37 construct: also called odronextamab
Summary of the method: as §2

[38] = biological target: T38, ADI-22523 Fab; experiment: BLI; tip anti-ID IgG, solution ADI-22523 Fab
T38 construct: anti-CD3 Fab by papain digestion of the IgG
Procedure: as §1

[39] = biological target: T6, ADI-26919; experiment: SPR Carterra avidity, yeast anti-ID
Summary of the method: as §2

[40] = biological target: T7, ADI-26916 IgG; experiment: SPR Carterra avidity, yeast anti-ID
Summary of the method: as §2

[41] = biological target: T8, ADI-26924; experiment: SPR Carterra avidity, yeast anti-ID
Summary of the method: as §2

[42] = biological target: T12, ADI-26909; experiment: SPR Carterra, yeast anti-ID
Summary of the method: as §2

[43] = biological target: T14, ADI-48587; experiment: SPR Carterra, yeast anti-ID
Summary of the method: as §2

[44] = biological target: T18, ADI-74967; experiment: SPR Carterra, yeast anti-ID
Summary of the method: as §2

[45] = biological target: T20, ADI-70326; experiment: SPR Carterra, yeast anti-ID
Summary of the method: as §2

[46] = biological target: T25, ADI-26921 IgG; experiment: SPR Carterra, yeast anti-ID
Summary of the method: as §2

T35 sequence (VH, as listed by the source limits assumed, chain 1 of 2): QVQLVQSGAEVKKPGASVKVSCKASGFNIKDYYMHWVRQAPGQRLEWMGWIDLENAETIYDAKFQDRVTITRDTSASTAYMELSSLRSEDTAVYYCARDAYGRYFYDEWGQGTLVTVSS
T35 sequence (VL, as listed by the source limits assumed, chain 2 of 2): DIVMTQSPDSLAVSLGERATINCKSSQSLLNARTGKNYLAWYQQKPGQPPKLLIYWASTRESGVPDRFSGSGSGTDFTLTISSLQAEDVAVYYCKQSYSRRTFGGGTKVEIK
T25 sequence (VH, as listed by the source limits assumed, chain 1 of 2): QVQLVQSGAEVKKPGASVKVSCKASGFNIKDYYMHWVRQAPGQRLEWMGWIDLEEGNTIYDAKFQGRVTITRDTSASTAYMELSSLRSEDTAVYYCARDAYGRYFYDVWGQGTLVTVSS
T25 sequence (VL, as listed by the source limits assumed, chain 2 of 2): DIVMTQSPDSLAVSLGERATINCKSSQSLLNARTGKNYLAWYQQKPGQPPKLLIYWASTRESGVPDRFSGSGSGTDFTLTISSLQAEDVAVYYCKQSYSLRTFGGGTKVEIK
T6 sequence (VH, as listed by the source limits assumed, chain 1 of 2): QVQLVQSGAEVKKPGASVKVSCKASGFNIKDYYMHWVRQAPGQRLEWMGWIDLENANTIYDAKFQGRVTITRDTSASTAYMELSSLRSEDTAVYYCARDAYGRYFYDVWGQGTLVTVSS
T37 sequence (VH, as listed by the source, chain 1 of 2): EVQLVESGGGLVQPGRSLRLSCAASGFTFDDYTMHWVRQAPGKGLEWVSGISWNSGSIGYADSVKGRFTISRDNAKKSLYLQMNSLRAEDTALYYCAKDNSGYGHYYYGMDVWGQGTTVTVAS
T37 sequence (VL, as listed by the source, chain 2 of 2): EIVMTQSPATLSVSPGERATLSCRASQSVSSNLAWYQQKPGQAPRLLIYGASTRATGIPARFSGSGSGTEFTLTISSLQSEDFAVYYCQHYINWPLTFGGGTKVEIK
T21 sequence (VH, as listed by the source, chain 1 of 2): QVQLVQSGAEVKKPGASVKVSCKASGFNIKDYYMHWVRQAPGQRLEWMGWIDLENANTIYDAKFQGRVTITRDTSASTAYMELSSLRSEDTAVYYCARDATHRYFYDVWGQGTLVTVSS
T21 sequence (VL, as listed by the source, chain 2 of 2): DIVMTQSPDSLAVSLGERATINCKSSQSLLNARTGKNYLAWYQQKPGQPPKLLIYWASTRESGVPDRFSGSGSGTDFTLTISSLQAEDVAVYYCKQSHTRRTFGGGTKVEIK
T15 sequence (VH, as listed by the source, chain 1 of 2): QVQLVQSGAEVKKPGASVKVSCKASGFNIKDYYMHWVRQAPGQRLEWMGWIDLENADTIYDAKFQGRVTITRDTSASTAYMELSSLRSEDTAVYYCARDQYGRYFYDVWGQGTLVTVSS
T20 sequence (VH, as listed by the source limits assumed, chain 1 of 2): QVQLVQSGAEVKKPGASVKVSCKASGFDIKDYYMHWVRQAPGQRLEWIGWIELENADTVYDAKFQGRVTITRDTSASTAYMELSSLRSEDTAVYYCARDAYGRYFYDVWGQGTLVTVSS
T20 sequence (VL, as listed by the source limits assumed, chain 2 of 2): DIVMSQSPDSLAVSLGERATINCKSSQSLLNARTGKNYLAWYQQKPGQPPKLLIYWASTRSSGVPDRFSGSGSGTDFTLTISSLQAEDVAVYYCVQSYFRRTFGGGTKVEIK
T3 sequence (VH, as listed by the source limits assumed, chain 1 of 2): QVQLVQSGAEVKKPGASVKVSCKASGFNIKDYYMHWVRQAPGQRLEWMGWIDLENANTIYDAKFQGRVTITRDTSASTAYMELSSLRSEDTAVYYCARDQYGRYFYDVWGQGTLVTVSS
T29 sequence (VH, as listed by the source limits assumed, chain 1 of 2): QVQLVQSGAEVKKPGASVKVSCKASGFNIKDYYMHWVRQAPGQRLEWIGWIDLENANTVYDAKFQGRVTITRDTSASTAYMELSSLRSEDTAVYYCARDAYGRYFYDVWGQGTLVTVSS
T26 sequence (VH, as listed by the source, chain 1 of 2): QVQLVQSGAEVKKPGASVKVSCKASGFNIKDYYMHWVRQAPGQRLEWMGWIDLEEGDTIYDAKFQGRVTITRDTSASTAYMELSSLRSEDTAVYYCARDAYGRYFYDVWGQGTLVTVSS
T30 sequence (VH, as listed by the source limits assumed, chain 1 of 2): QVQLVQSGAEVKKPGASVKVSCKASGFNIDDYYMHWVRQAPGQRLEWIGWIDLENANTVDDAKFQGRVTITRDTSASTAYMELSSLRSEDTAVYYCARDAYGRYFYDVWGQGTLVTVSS
T31 sequence (VH, as listed by the source, chain 1 of 2): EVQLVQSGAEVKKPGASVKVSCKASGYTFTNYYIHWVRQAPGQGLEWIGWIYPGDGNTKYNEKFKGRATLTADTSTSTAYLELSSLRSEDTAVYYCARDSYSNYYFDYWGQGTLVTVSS
T31 sequence (VL, as listed by the source, chain 2 of 2): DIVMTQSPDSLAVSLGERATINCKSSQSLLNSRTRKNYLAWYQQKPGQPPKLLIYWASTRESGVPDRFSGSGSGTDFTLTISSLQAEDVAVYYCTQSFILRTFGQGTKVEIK
T12 sequence (VH, as listed by the source limits assumed, chain 1 of 2): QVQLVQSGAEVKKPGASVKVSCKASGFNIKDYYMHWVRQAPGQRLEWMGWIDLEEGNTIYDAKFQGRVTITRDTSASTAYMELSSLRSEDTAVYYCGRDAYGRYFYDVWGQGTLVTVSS
T11 sequence (VH, as listed by the source, chain 1 of 2): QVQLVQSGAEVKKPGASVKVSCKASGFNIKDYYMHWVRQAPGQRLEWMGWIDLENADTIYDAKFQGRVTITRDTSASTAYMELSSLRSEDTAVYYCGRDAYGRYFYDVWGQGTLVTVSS
T24 sequence (VH, as listed by the source limits assumed, chain 1 of 2): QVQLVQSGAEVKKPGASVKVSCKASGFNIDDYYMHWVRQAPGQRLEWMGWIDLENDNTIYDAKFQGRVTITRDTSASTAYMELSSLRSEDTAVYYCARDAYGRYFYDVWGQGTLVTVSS
T33 sequence (VH, as listed by the source, chain 1 of 2): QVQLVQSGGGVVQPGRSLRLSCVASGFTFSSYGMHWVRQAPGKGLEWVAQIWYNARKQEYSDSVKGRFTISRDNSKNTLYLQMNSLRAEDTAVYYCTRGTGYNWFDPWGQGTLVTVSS
T33 sequence (VL, as listed by the source, chain 2 of 2): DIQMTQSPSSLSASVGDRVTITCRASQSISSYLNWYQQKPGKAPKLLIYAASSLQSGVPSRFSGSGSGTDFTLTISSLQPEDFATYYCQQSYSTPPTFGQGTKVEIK
T23 sequence (VH, as listed by the source, chain 1 of 2): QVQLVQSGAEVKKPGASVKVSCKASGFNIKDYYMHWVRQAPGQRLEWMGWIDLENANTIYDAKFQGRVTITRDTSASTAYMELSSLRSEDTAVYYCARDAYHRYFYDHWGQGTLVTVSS
T23 sequence (VL, as listed by the source, chain 2 of 2): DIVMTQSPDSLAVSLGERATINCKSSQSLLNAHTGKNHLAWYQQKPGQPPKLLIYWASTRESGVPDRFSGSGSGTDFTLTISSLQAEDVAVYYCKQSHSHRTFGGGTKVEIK

Binder	Kd [1] [nM]	Kd [2] [nM]	Kd [3] [nM]	Kd [4] [nM]	Kd [5] [nM]	Kd [9] [nM]	binding result [13]	binding result [15]	binding result [16]	binding result [17]	Kd [19] [nM]	binding result [21]	Kd [22] [nM]	Kd [24] [nM]	binding result [26]	Kd [27] [nM]	binding result [28]	binding result [29]	binding result [30]	binding result [31]	other results
B1	2.83	7.1	7	13	5.7	7.6	binds	binds	binds	binds	51	binds	14	17	binds	63	binds	binds	no binding (tested: up to 200 nM)	no binding (tested: up to 200 nM)	Kd [6]: 10 nM; Kd [7]: 10 nM; Kd [8]: 5.4 nM; Kd [10]: 33 nM; Kd [11]: 54 nM; binding result [12]: binds; binding result [14]: binds; Kd [18]: 32 nM; binding result [20]: binds; Kd [23]: 22 nM; binding result [25]: binds; binding result [32]: no binding (tested: up to 200 nM); binding result [33]: no binding (tested: up to 200 nM); binding result [34]: no binding (tested: up to 200 nM); binding result [35]: no binding (tested: up to 200 nM); binding result [36]: no binding (tested: up to 200 nM); binding result [37]: no binding (tested: up to 200 nM); Kd [38]: 16.5 nM
B2	2.6	7.5	8.6	12	5.1	6.3	binds	binds	binds	binds	59	binds	17	22	binds	72	binds	binds	no binding (tested: up to 200 nM)	no binding (tested: up to 200 nM)	binding result [10]: binds; binding result [11]: binds; binding result [23]: binds; Kd [39]: 32 nM; Kd [40]: 16 nM; Kd [41]: 4.9 nM; binding result [42]: no binding (tested: up to 200 nM); binding result [43]: no binding (tested: up to 200 nM); binding result [44]: no binding (tested: up to 200 nM); binding result [32]: no binding (tested: up to 200 nM); binding result [45]: no binding (tested: up to 200 nM); binding result [33]: no binding (tested: up to 200 nM); binding result [46]: no binding (tested: up to 200 nM); binding result [34]: no binding (tested: up to 200 nM); binding result [35]: no binding (tested: up to 200 nM); binding result [36]: no binding (tested: up to 200 nM); binding result [37]: no binding (tested: up to 200 nM); Kd [38]: 6.17 nM

— patent US20250019439A1 (Adimab, published 2025)
